Laboratory results as given in article PMC2266763, “Dimerization of the transmembrane domain of amyloid precursor proteins and familial Alzheimer's disease mutants” (BMC Neuroscience, 2008).

B1: wild-type APP-TM peptide [modified: acceptor version: Glu with the fluorescent group EDANS covalently linked to its sidechain, after the N-terminal Lys-tag (in place of the Trp of the donor version); acceptor version: Glu with … (parent)
chain 1: GAIIGLMVGGVVIATVIVITLVML
chain 2: GAIIGLMVGGVVIATVIVITLVML
B2: wild-type APP-TM peptide [modified: acceptor version: Glu with the fluorescent group EDANS covalently linked to its sidechain, after the N-terminal Lys-tag (in place of the Trp of the donor version); acceptor version: Glu with … (parent)
chain: GAIIGLMVGGVVIATVIVITLVML

Variants of: B1
Test: FRET
Details: 50 µM total peptide concentration, equimolar wild-type and mutant (open bar), parent: 0.73, read off a plot

Row | Variant | response
1 | chain 1 GAIIGLMVGGVVIAIVIVITLVML | 0.44 A/D ratio
2 | chain 1 GAIIGLMVGGVVIATVIFITLVML | 0.43 A/D ratio
3 | chain 1 GAIIGLMVGGVVIATVIGITLVML | 1.6 A/D ratio

Same assay, conditions: 20 mM SDS, equimolar Trp-labeled wild-type and Edans-labeled V717G, 50 µM total peptide concentration (highest point of the curve), read off a plot

Row | Variant | response
4 | chain 1 GAIIGLMVGGVVIATVIGITLVML | 1.6 A/D ratio

Variants of: B2
Test: FRET
Details: with itself; 50 µM total peptide concentration; homodimer (solid bar); parent: 0.73; read off a plot

Row | Variant | response
5 | GAIIGLMVGGVVIAIVIVITLVML | 0.42 A/D ratio
